{
  "source": "paper PMC9565474",
  "about": "“Evolution avoids a pathological stabilizing interaction in the immune protein S100A9” (Proceedings of the National Academy of Sciences of the …, 2022)",
  "proteins": {"B1": {"name": "hS100A9/M63F (natural protein, human, UniProt P06702 1-114, looked up)", "chain": "MTSKMSQLERNIETIINTFHQYSVKLGHPDTLNQGEFKELVRKDLQNFLKKENKNEKVIEHIFEDLDTNADKQLSFEEFIMLMARLTWASHEKMHEGDEGPGHHHKPGLGEGTP", "notes": "human S100A9, Uniprot P06702, Cys-free (C3S) background with M63F; 114 residues (residues 1 to 114 named in the NMR structure); 15N or 15N/13C labelled for NMR; also called human S100A9 M63F; F/F"}},
  "target": "the molecule itself",
  "experiment": "NMR structure; calcium-bound hS100A9/M63F, 0.5 to 1.0 mM dimer, 25 mM Tris, 100 mM NaCl, 10 mM CaCl2 (pH 7.4), 10% D2O, 25 °C or 37 °C; homodimer with chains A and B",
  "data": [
    {"protein": "B1", "values": [
      {"measurement": "binding result", "value": "binds"}
    ]}
  ]
}
